The target in one data set is NT-proBNP (UniProt P16860 27-102). Briefly: graphene field-effect transistor (GFET) aptasensor; LOD 0.01 pg/mL, range 0.1-10^4 pg/mL; Langmuir KD calculated but value not in material; PBS (137 mM NaCl, 2.7 mM KCl, 10 mM phosphate) used for immobilization and blank; sensing buffer dilution, pH and temperature not given in material; aptamer on. Particulars: protein: commercial.

Data set [1] addresses cTnI (cardiac troponin I) (UniProt P19429 2-210). The data set is described as follows: graphene field-effect transistor (GFET) aptasensor; cTnI 3.5 ng/mL; no significant response; PBS (137 mM NaCl, 2.7 mM KCl, 10 mM phosphate) used for immobilization and blank; sensing buffer dilution, pH and temperature not given in material; aptamer on. As to conditions: protein: commercial.

Chain of NT-proBNP (P16860 27-102): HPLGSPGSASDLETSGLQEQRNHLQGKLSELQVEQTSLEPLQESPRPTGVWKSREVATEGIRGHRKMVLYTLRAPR
Chain of cTnI (cardiac troponin I) (P19429 2-210): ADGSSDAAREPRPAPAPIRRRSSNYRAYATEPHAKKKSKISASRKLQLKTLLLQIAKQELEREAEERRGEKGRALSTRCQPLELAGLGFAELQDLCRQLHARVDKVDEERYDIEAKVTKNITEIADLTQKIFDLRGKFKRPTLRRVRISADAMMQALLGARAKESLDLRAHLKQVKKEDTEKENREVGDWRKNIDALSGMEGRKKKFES

B1: azide-modified NT-proBNP aptamer (N20a in Fig. S3 legend) (ssDNA)
DNA: GGCAGGAAGACAAACAGGTCGTAGTGGAAACTGTCCACCGTAGACCGGTTATCTAGTGGTCTGTGGTGCTGT
modifications: 5'-NH2; 3'-azide (N3), photochemically coupled to graphene
With B1, the results for the binding result (in the data set with NT-proBNP; in data set [1]) were “binds” and “no binding”, respectively.

Source of the values: publication PMC9775241, “One-Step Photochemical Immobilization of Aptamer on Graphene for Label-Free Detection of NT-proBNP”.
